In IntAct's records for PubMed 26031419:

B1: Glucocorticoid receptor (Homo sapiens), P04150-1 (parent)
chain: MDSKESLTPGREENPSSVLAQERGDVMDFYKTLRGGATVKVSASSPSLAVASQSDSKQRRLLVDFPKGSVSNAQQPDLSKAVSLSMGLYMGETETKVMGNDLGFPQQGQISLSSGETDLKLLEESIANLNRSTSVPENPKSSASTAVSAAPTEKEFPKTHSDVSSEQQHLKGQTGTNGGNVKLYTTDQSTFDILQDLEFSSGSPGKETNESPWRSDLLIDENCLLSPLAGEDDSFLLEGNSNEDCKPLILPDTKPKIKDNGDLVLSSPSNVTLPQVKTEKEDFIELCTPGVIKQEKLGTVYCQASFPGANIIGNKMSAISVHGVSTSGGQMYHYDMNTASLSQQQDQKPIFNVIPPIPVGSENWNRCQGSGDDNLTSLGTLNFPGRTVFSNGYSSPSMRPDVSSPPSSSSTATTGPPPKLCLVCSDEASGCHYGVLTCGSCKVFFKRAVEGQHNYLCAGRNDCIIDKIRRKNCPACRYRKCLQAGMNLEARKTKKKIKGIQQATTGVSQETSENPGNKTIVPATLPQLTPTLVSLLEVIEPEVLYAGYDSSVPDSTWRIMTTLNMLGGRQVIAAVKWAKAIPGFRNLHLDDQMTLLQYSWMFLMAFALGWRSYRQSSANLLCFAPDLIINEQRMTLPCMYDQCKHMLYVSSELHRLQVSYEEYLCMKTLLLLSSVPKDGLKSQELFDEIRMTYIKELGKAIVKREGNSSQNWQRFYQLTKLLDSMHEVVENLLNYCFQTFLDKTMSIEFPEMLAEIITNQIPKYSNGNIKKLLFHQK

Variants of: B1
Conditions: with ncoa2_mouse Ncoa2, Q61026
ncoa2_mouse Ncoa2, Q61026, sequence (Q61026 whole entry): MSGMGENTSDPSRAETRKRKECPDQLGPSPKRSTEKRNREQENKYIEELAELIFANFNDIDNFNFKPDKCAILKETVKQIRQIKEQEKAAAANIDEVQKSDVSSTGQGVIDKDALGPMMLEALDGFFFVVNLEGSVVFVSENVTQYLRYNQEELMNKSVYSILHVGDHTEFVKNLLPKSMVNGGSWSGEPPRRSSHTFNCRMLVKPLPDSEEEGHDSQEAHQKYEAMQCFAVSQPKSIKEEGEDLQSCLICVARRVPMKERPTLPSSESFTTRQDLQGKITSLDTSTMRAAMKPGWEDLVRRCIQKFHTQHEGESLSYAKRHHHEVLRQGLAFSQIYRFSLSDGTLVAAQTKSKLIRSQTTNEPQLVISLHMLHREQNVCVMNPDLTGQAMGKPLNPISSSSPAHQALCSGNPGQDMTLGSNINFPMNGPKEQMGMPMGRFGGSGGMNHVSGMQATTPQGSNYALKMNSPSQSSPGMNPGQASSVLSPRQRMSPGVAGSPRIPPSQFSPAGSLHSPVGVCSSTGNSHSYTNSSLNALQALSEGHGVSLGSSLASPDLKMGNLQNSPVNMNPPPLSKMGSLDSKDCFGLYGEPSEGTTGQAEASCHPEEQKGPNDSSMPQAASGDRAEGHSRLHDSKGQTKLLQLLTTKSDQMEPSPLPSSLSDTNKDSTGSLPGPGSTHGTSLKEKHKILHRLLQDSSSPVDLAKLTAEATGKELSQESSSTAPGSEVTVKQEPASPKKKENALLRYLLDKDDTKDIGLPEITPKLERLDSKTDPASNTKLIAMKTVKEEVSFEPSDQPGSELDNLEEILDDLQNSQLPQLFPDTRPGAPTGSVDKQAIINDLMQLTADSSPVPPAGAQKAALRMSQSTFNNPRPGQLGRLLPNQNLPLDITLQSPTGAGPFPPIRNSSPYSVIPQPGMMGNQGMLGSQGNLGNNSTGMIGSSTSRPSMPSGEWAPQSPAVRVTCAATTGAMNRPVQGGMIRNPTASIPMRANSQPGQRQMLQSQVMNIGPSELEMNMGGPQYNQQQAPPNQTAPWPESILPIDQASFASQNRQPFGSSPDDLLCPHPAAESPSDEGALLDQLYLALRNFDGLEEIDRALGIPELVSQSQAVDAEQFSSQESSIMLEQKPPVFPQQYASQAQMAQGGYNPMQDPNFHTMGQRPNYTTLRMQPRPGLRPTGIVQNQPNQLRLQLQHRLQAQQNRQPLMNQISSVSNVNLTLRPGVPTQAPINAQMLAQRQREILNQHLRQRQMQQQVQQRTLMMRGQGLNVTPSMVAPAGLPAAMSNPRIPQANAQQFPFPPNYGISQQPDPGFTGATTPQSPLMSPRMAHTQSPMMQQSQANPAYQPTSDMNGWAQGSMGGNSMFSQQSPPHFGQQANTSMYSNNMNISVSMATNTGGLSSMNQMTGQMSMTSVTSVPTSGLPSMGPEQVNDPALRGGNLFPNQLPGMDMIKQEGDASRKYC

| effect of a mutation on the interaction | Variant |
| --- | --- |
| with no effect | H726R |

Variants of: B1
Conditions: with ncoa2_mouse Ncoa2, Q61026
Remark: another data set of the same source

| effect of a mutation on the interaction | Variant |
| --- | --- |
| decreasing interaction strength | H726R |
